According to the supplement of paper PMC11246515:
± gives the standard deviation of the averaged measurements.

Test: total protein half-life in vivo (active degradation + dilution); higher = more stable protein
[1] = E. coli NCM3722 delta-clpP delta-lon delta-hslV, growth: N-lim chemostat, doubling time 6 h
[2] = E. coli NCM3722 delta-hslV, growth: N-lim chemostat, doubling time 6 h
[3] = E. coli NCM3722 delta-lon, growth: N-lim chemostat, doubling time 6 h
[4] = E. coli NCM3722 delta-smpB, growth: N-lim chemostat, doubling time 6 h
[5] = wild type E. coli NCM3722, growth: C-lim chemostat, doubling time 3 h
[6] = wild type E. coli NCM3722, growth: C-lim chemostat, doubling time 6 h
[7] = wild type E. coli NCM3722, growth: C-lim chemostat, doubling time 12 h
[8] = wild type E. coli NCM3722, growth: N-lim chemostat, doubling time 6 h
[9] = wild type E. coli NCM3722, growth: N-lim chemostat, doubling time 12 h
[10] = wild type E. coli NCM3722, growth: P-lim chemostat, doubling time 6 h
[11] = wild type E. coli NCM3722, growth: P-lim chemostat, doubling time 12 h
[12] = E. coli NCM3722 delta-clpP, growth: N-lim chemostat, doubling time 6 h

MAAKDRIQAIKQMVANDKKVTVSNLSGIFQVTEETIRRDLEKLEDEGFLTRTYGGAVLNTAMLTENIHFYKRASSFYEEKQLIARKALPFIDNKTTMAADSSSTVMELLKLLQDRSGLTLLTNSAEAIHVLAQSEIKVVSTGGELNKNTLSLQGRITKEIIRRYHVDIMVMSCKGLDINSGALDSNEAEAEIKKTMIRQATEVALLVDHSKFDRKAFVQLADFSHINYIITDKSPGAEWIAFCKDNNIQLVW
total protein half-life in vivo [1]: 5.6 ± 0.062 h
total protein half-life in vivo [2]: 5.31 ± 0.24 h
total protein half-life in vivo [3]: 5.25 ± 1.1 h
total protein half-life in vivo [4]: 5.12 ± 0.069 h
total protein half-life in vivo [5]: 2.93 ± 0.12 h
total protein half-life in vivo [6]: 5.96 ± 0.83 h
total protein half-life in vivo [7]: 9.64 ± 0.74 h
total protein half-life in vivo [8]: 5.5 ± 0.2 h
total protein half-life in vivo [9]: 9.92 ± 1.1 h
total protein half-life in vivo [10]: 5.45 ± 0.52 h
total protein half-life in vivo [11]: 13 ± 2.9 h

MSGARLHTLLPELTTRQSVMVVGAAVIDVIADAYALPWRGCDIELKQQSVNVGGCALNIAVALKRLGIEAGNALPLGQGVWAEMIRNRMAKEGLISLIDNAEGDNGWCLALVEPDGERTFMSFSGVENQWNRQWLARLTVAPGSLLYFSGYQLASPCGELLVEWLEELQDVTPFIDFGPRIGDIPDALLARIMACRPLVSLNRQEAEIAAERFALSAEITTLGKQWQEKFAAPLIVRLDKEGAWYFSNDASGCIPAFPTQVVDTIGAGDSHAGGVLAGLASGLPLADAVLLGNAVASWVVGHRGGDCAPTREELLLAHKNV
total protein half-life in vivo [1]: 4.46 ± 0.92 h
total protein half-life in vivo [12]: 3.62 ± 0.076 h
total protein half-life in vivo [4]: 3.76 ± 0.33 h
total protein half-life in vivo [5]: 3.02 ± 0.012 h
total protein half-life in vivo [6]: 4.79 ± 0.53 h
total protein half-life in vivo [7]: 6.71 ± 3.7 h
total protein half-life in vivo [8]: 3.67 ± 0.096 h
total protein half-life in vivo [9]: 6.33 ± 1.1 h
total protein half-life in vivo [10]: 4.76 ± 0.76 h
total protein half-life in vivo [11]: 11.1 ± 2.4 h

MAEIGIFVGTMYGNSLLVAEEAEAILTAQGHKATVFEDPELSDWLPYQDKYVLVVTSTTGQGDLPDSIVPLFQGIKDSLGFQPNLRYGVIALGDSSYVNFCNGGKQFDALLQEQSAQRVGEMLLIDASENPEPETESNPWVEQWGTLLS
total protein half-life in vivo [1]: 6.12 ± 0.9 h
total protein half-life in vivo [12]: 6.03 ± 1.5 h
total protein half-life in vivo [2]: 5.34 ± 0.23 h
total protein half-life in vivo [3]: 6 ± 0.2 h
total protein half-life in vivo [4]: 5.34 ± 0.1 h
total protein half-life in vivo [5]: 3.57 ± 0.5 h
total protein half-life in vivo [6]: 5.8 ± 0.3 h
total protein half-life in vivo [7]: 13.42 ± 0.023 h
total protein half-life in vivo [8]: 5.7 ± 0.42 h
total protein half-life in vivo [9]: 9.75 ± 0.96 h
total protein half-life in vivo [10]: 6.03 ± 0.35 h

MAIKKRSATVVPGASGAAAAVKNPQASKTSFWGELPQHVMSGISRMVPTLIMGGVILAFSQLIAYSWLKIPAEIGIMDALNSGKFSGFDLSLLKFAWLSQSFGGVLFGFAIPMFAAFVANSIGGKLAFPAGFIGGLMSTQPTQLLNFDPSTMQWATSSPVPSTFIGALIISIVAGYLVKWMNQKIQLPDFLLAFKTTFLLPILSAIFVMLAMYYVITPFGGWINGGIRTVLTAAGEKGALMYAMGIAAATAIDLGGPINKAAGFVAFSFTTDHVLPVTARSIAIVIPPIGLGLATIIDRRLTGKRLFNAQLYPQGKTAMFLAFMGISEGAIPFALESPITAIPSYMVGAIVGSTAAVWLGAVQWFPESAIWAWPLVTNLGVYMAGIALGAVITALMVVFLRLMMFRKGKLLIDSL
total protein half-life in vivo [5]: 2.72 h
total protein half-life in vivo [6]: 4.59 ± 0.42 h
total protein half-life in vivo [7]: 6.4 h

MTSLVSLENVSVSFGQRRVLSDVSLELKPGKILTLLGPNGAGKSTLVRVVLGLVTPDEGVIKRNGKLRIGYVPQKLYLDTTLPLTVNRFLRLRPGTHKEDILPALKRVQAGHLINAPMQKLSGGETQRVLLARALLNRPQLLVLDEPTQGVDVNGQVALYDLIDQLRRELDCGVLMVSHDLHLVMAKTDEVLCLNHHICCSGTPEVVSLHPEFISMFGPRGAEQLGIYRHHHNHRHDLQGRIVLRRGNDRS [P0A9X1]
total protein half-life in vivo [1]: 5.6 ± 0.31 h
total protein half-life in vivo [12]: 5.12 ± 0.41 h
total protein half-life in vivo [2]: 2.88 ± 1.1 h
total protein half-life in vivo [3]: 2 ± 0.1 h
total protein half-life in vivo [4]: 4.75 ± 2.8 h
total protein half-life in vivo [5]: 2.63 ± 0.088 h
total protein half-life in vivo [6]: 4.39 ± 0.11 h
total protein half-life in vivo [7]: 6.41 ± 2.1 h
total protein half-life in vivo [8]: 2.6 ± 0.37 h
total protein half-life in vivo [9]: 5.01 ± 2 h
total protein half-life in vivo [10]: 4.12 ± 0.059 h
total protein half-life in vivo [11]: 7.83 ± 2 h

MKKSTLALVVMGIVASASVQAAEIYNKDGNKLDVYGKVKAMHYMSDNASKDGDQSYIRFGFKGETQINDQLTGYGRWEAEFAGNKAESDTAQQKTRLAFAGLKYKDLGSFDYGRNLGALYDVEAWTDMFPEFGGDSSAQTDNFMTKRASGLATYRNTDFFGVIDGLNLTLQYQGKNENRDVKKQNGDGFGTSLTYDFGGSDFAISGAYTNSDRTNEQNLQSRGTGKRAEAWATGLKYDANNIYLATFYSETRKMTPITGGFANKTQNFEAVAQYQFDFGLRPSLGYVLSKGKDIEGIGDEDLVNYIDVGATYYFNKNMSAFVDYKINQLDSDNKLNINNDDIVAVGMTYQF
total protein half-life in vivo [1]: 6.3 h
total protein half-life in vivo [12]: > 8 h
total protein half-life in vivo [2]: 6.65 ± 0.12 h
total protein half-life in vivo [4]: 6.18 ± 0.13 h
total protein half-life in vivo [6]: 5.98 ± 0.22 h
total protein half-life in vivo [7]: 12.6 ± 1.1 h
total protein half-life in vivo [9]: 11 ± 2.1 h
total protein half-life in vivo [10]: 6.41 ± 0.31 h
total protein half-life in vivo [11]: 13.9 ± 1.1 h

MKTMLAAYLPGNSTVDLREVAVPTPGINQVLIKMKSSGICGSDVHYIYHQHRATAAAPDKPLYQGFINGHEPCGQIVAMGQGCRHFKEGDRVLVYHISGCGFCPNCRRGFPISCTGEGKAAYGWQRDGGHAEYLLAEEKDLILLPDALSYEDGAFISCGVGTAYEGILRGEVSGSDNVLVVGLGPVGMMAMMLAKGRGAKRIIGVDMLPERLAMAKQLGVMDHGYLATTEGLPQIIAELTHGGADVALDCSGNAAGRLLALQSTADWGRVVYIGETGKVEFEVSADLMHHQRRIIGSWVTSLFHMEKCAHDLTDWKLWPRNAITHRFSLEQAGDAYALMASGKCGKVVINFPD
total protein half-life in vivo [1]: 4.41 ± 0.15 h
total protein half-life in vivo [12]: 2.87 h
total protein half-life in vivo [2]: 2.466 ± 0.011 h
total protein half-life in vivo [3]: 2.619 ± 0.012 h
total protein half-life in vivo [4]: 1.84 ± 1.1 h
total protein half-life in vivo [6]: 2.74 h
total protein half-life in vivo [7]: 5.33 ± 3.6 h
total protein half-life in vivo [8]: 2.17 ± 0.04 h
total protein half-life in vivo [9]: 3.6 ± 0.11 h
total protein half-life in vivo [10]: 4.27 ± 0.51 h
total protein half-life in vivo [11]: 8.54 ± 2.2 h
